The values that follow come from paper PMC11527279, “The SARS-CoV-2 ORF6 protein inhibits nuclear export of mRNA and spliceosomal U snRNA” (PLOS ONE, 2024).

The test has as its target T1, GST-T7-ORF6-His (SARS-CoV-2, UniProt P0DTC6 1-61).
T1 construct: ORF6 protein of SARS-CoV-2, full-length recombinant protein; pGEX-T7-ORF6-His; T7 tag lies between GST and ORF6; also called GST-ORF6; not shown: GST, N-terminal, kept; T7, N-terminal, kept; His6, C-terminal, kept
T1 sequence: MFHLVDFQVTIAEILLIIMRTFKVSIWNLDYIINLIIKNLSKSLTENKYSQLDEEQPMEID
As to conditions: both partners purified.

B1: T7-ORF6-His (natural protein)
chain: MFHLVDFQVTIAEILLIIMRTFKVSIWNLDYIINLIIKNLSKSLTENKYSQLDEEQPMEID
notes: ORF6 protein of SARS-CoV-2, full-length recombinant protein; From pGEX-T7-ORF6-His (pGEX-6p-1 backbone); also called SARS-CoV-2 ORF6 protein; not shown: GST, N-terminal, cleaved; T7, N-terminal, kept; His6, C-terminal, kept
B1: the binding result is recorded as “binds”.
